The record followed here is PMC6379078 (Cell, 2018).

Usually Kd stands for the equilibrium constant for the complex coming apart. Low values mean a tighter complex, high ones a looser complex.

Ends that are not written are not given here. * marks the point of attachment. Biotin = O=C1N[C@H]2[C@H](CS[C@H]2CCCCC(=O)*)N1

The assay deals with T1, wheat germ cell extract in vitro translated HA-GLI1 (human, UniProt P08151 1-1106).
T1 sequence (looked up): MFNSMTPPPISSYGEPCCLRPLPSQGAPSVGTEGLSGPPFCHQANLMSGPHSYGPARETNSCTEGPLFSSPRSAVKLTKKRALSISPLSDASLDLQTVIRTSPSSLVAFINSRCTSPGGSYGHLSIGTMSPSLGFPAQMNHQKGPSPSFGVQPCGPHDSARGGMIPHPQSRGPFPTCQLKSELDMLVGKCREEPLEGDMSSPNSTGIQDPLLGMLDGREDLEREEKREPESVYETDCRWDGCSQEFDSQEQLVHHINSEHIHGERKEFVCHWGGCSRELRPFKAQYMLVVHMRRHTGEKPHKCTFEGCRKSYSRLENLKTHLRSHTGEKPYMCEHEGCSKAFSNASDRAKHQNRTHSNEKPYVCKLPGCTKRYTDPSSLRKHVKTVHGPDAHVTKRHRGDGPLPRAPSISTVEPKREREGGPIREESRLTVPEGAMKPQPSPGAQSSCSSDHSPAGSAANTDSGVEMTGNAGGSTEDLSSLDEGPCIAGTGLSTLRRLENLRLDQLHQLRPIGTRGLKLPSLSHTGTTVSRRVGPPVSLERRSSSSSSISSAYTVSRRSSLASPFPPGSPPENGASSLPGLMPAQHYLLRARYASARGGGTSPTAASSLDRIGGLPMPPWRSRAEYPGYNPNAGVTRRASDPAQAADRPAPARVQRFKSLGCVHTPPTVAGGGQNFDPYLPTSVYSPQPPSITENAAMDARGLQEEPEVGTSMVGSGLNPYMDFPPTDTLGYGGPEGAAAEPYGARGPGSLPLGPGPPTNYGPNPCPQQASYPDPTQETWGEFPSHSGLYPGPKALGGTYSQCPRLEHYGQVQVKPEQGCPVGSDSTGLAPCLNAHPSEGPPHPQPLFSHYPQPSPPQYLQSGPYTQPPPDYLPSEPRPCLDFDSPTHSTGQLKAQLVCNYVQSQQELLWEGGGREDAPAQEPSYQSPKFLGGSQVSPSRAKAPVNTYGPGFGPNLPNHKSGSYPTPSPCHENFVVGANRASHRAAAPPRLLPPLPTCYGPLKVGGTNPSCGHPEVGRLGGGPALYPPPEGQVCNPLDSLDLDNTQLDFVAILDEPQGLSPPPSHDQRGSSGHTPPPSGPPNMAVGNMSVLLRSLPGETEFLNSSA
The experiment in a line: co-IP.

Molecule Biotin-LEDPSVLTKDKLKSELVANNVTLPAGEQRKDVYVQLYLQHLTAR (peptide, UniProt P42166 5-48, looked up) [biotin-LEM-like domain peptide (residues 5–48)] came in with a Kd of 8 µM. That is a single-digit micromolar value.
